Assay results reported in the supplement of paper PMC12458215.
± gives the uncertainty stated by the source.

Tested on: HEK293T
Test: plasma membrane surface immunostaining intensity (anti-HA, deep receptor scanning) (arbitrary fluorescence units); higher = higher plasma membrane expression

Sequence | plasma membrane surface immunostaining intensity (GPCR class: A) | other results
MDLGKPMKSVLVVALLVIFQVCLCQDEVTDDYIGDNTTVDYTLFESLCSKKDVRNFKAWFLPIMYSIICFVGLLGNGLVVLTYIYFKRLKTMTDTYLLNLAVADILFLLTLPFWAYSAAKSWVFGVHFCKLIFAIYKMSFFSGMLLLLCISIDRYVAIVQAVSAHRHRARVLLISKLSCVGIWILATVLSIPELLYSDLQRSSSEQAMRCSLITEHVEAFITIQVAQMVIGFLVPLLAMSFCYLVIIRTLLQARNFERNKAIKVIIAVVVVFIVFQLPYNGVVLAQTVANFNITSSTCELSKQLNIAYDVTYSLACVRCCVNPFLYAFIGVKFRNDLFKLFKDLGCLSQEQLRQWSSCRHIRRSSMSVEAETTTTFSP [CCR7] | 2440 ± 380 | 
MDLKNGSLVTEFILLGFFGRWELQIFFFVTFSLIYGATVMGNILIMVTVTCRSTLHSPLYFLLGNLSFLDMCLSTATTPKMIIDLLTDHKTISVWGCVTQMFFMHFFGGAEMTLLIIMAFDRYVAICKPLHYRTIMSHKLLKGFAILSWIIGFLHSISQIVLTMNLPFCGHNVINNIFCDLPLVIKLACIETYTLELFVIADSGLLSFTCFILLLVSYIVILVSVPKKSSHGLSKALSTLSAHIIVVTLFFGPCIFIYVWPFSSLASNKTLAVFYTVITPLLNPSIYTLRNKKMQEAIRKLRFQYVSSAQNF [OR4L1] |  | plasma membrane surface immunostaining intensity (GPCR class: A (Olfactory)): 549 ± 220
MDLKTVLSLPRYPGEFLHPVVYACTAVMLLCLLASFVTYIVHQSAIRISRKGRHTLLNFCFHAALTFTVFAGGINRTKYPILCQAVGIVLHYSTLSTMLWIGVTARNIYKQVTKKAPLCLDTDQPPYPRQPLLRFYLVSGGVPFIICGVTAATNIRNYGTEDEDTAYCWMAWEPSLGAFYGPAAIITLVTCVYFLGTYVQLRRHPGRRYELRTQPEEQRRLATPEGGRGIRPGTPPAHDAPGASVLQNEHSFQAQLRAAAFTLFLFTATWAFGALAVSQGHFLDMVFSCLYGAFCVTLGLFVLIHHCAKREDVWQCWWACCPPRKDAHPALDANGAALGRAACLHSPGLGQPRGFAHPPGPCKMTNLQAAQGHASCLSPATPCCAKMHCEPLTADEAHVHLQEEGAFGHDPHLHGCLQGRTKPPYFSRHPAEEPEYAYHIPSSLDGSPRSSRTDSPPSSLDGPAGTHTLACCTQGDPFPMVTQPEGSDGSPALYSCPTQPGREAALGPGHLEMLRRTQSLPFGGPSQNGLPKGKLLEGLPFGTDGTGNIRTGPWKNETTV [ADGRA1] |  | plasma membrane surface immunostaining intensity (GPCR class: B): 2640 ± 630
MDLPPQLSFGLYVAAFALGFPLNVLAIRGATAHARLRLTPSLVYALNLGCSDLLLTVSLPLKAVEALASGAWPLPASLCPVFAVAHFFPLYAGGGFLAALSAGRYLGAAFPLGYQAFRRPCYSWGVCAAIWALVLCHLGLVFGLEAPGGWLDHSNTSLGINTPVNGSPVCLEAWDPASAGPARFSLSLLLFFLPLAITAFCYVGCLRALARSGLTHRRKLRAAWVAGGALLTLLLCVGPYNASNVASFLYPNLGGSWRKLGLITGAWSVVLNPLVTGYLGRGPGLKTVCAARTQGGKSQK [FFAR1] | 265 ± 37 | 
MDNASFSEPWPANASGPDPALSCSNASTLAPLPAPLAVAVPVVYAVICAVGLAGNSAVLYVLLRAPRMKTVTNLFILNLAIADELFTLVLPINIADFLLRQWPFGELMCKLIVAIDQYNTFSSLYFLTVMSADRYLVVLATAESRRVAGRTYSAARAVSLAVWGIVTLVVLPFAVFARLDDEQGRRQCVLVFPQPEAFWWRASRLYTLVLGFAIPVSTICVLYTTLLCRLHAMRLDSHAKALERAKKRVTFLVVAILAVCLLCWTPYHLSTVVALTTDLPQTPLVIAISYFITSLSYANSCLNPFLYAFLDASFRRNLRQLITCRAAA [NPBWR1] | 3950 ± 330 | 
MDNITWMASHTGWSDFILMGLFRQSKHPMANITWMANHTGWSDFILLGLFRQSKHPALLCVVIFVVFLMALSGNAVLILLIHCDAHLHTPMYFFISQLSLMDMAYISVTVPKMLLDQVMGVNKISAPECGMQMFFYVTLAGSEFFLLATMAYDRYVAICHPLRYPVLMNHRVCLFLSSGCWFLGSVDGFTFTPITMTFPFRGSREIHHFFCEVPAVLNLSCSDTSLYEIFMYLCCVLMLLIPVVIISSSYLLILLTIHGMNSAEGRKKAFATCSSHLTVVILFYGAAIYTYMLPSSYHTPEKDMMVSVFYTILTPVVNPLIYSLRNKDVMGALKKMLTVEPAFQKAME [OR2T4] |  | plasma membrane surface immunostaining intensity (GPCR class: A (Olfactory)): 122 ± 21
MDNLTKVTEFLLMEFSGIWELQVLHAGLFLLIYLAVLVGNLLIIAVITLDQHLHTPMYFFLKNLSVLDLCYISVTVPKSIRNSLTRRSSISYLGCVAQVYFFSAFASAELAFLTVMSYDRYVAICHPLQYRAVMTSGGCYQMAVTTWLSCFSYAAVHTGNMFREHVCRSSVIHQFFRDIPHVLALVSCEVFFVEFLTLALSSCLVLGCFILMMISYFQIFSTVLRIPSGQSRAKAFSTCSPQLIVIMLFLTTGLFAALGPIAKALSIQDLVIALTYTVLPPFLNPIIYSLRNKEIKTAMWRLFVKIYFLQK [OR14I1] |  | plasma membrane surface immunostaining intensity (GPCR class: A (Olfactory)): 118 ± 14
MDNVLPVDSDLSPNISTNTSEPNQFVQPAWQIVLWAAAYTVIVVTSVVGNVVVMWIILAHKRMRTVTNYFLVNLAFAEASMAAFNTVVNFTYAVHNEWYYGLFYCKFHNFFPIAAVFASIYSMTAVAFDRYMAIIHPLQPRLSATATKVVICVIWVLALLLAFPQGYYSTTETMPSRVVCMIEWPEHPNKIYEKVYHICVTVLIYFLPLLVIGYAYTVVGITLWASEIPGDSSDRYHEQVSAKRKVVKMMIVVVCTFAICWLPFHIFFLLPYINPDLYLKKFIQQVYLAIMWLAMSSTMYNPIIYCCLNDRFRLGFKHAFRCCPFISAGDYEGLEMKSTRYLQTQGSVYKVSRLETTISTVVGAHEEEPEDGPKATPSSLDLTSNCSSRSDSKTMTESFSFSSNVLS [TACR1] | 6280 ± 110 | 
MDPEETSVYLDYYYATSPNSDIRETHSHVPYTSVFLPVFYTAVFLTGVLGNLVLMGALHFKPGSRRLIDIFIINLAASDFIFLVTLPLWVDKEASLGLWRTGSFLCKGSSYMISVNMHCSVLLLTCMSVDRYLAIVWPVVSRKFRRTDCAYVVCASIWFISCLLGLPTLLSRELTLIDDKPYCAEKKATPIKLIWSLVALIFTFFVPLLSIVTCYCCIARKLCAHYQQSGKHNKKLKKSIKIIFIVVAAFLVSWLPFNTFKFLAIVSGLRQEHYLPSAILQLGMEVSGPLAFANSCVNPFIYYIFDSYIRRAIVHCLCPCLKNYDFGSSTETSDSHLTKALSTFIHAEDFARRRKRSVSL [GPR15] | 342 ± 19 | 
MDPLNLSWYDDDLERQNWSRPFNGSDGKADRPHYNYYATLLTLLIAVIVFGNVLVCMAVSREKALQTTTNYLIVSLAVADLLVATLVMPWVVYLEVVGEWKFSRIHCDIFVTLDVMMCTASILNLCAISIDRYTAVAMPMLYNTRYSSKRRVTVMISIVWVLSFTISCPLLFGLNNADQNECIIANPAFVVYSSIVSFYVPFIVTLLVYIKIYIVLRRRRKRVNTKRSSRAFRAHLRAPLKGNCTHPEDMKLCTVIMKSNGSFPVNRRRVEAARRAQELEMEMLSSTSPPERTRYSPIPPSHHQLTLPDPSHHGLHSTPDSPAKPEKNGHAKDHPKIAKIFEIQTMPNGKTRTSLKTMSRRKLSQQKEKKATQMLAIVLGVFIICWLPFFITHILNIHCDCNIPPVLYSAFTWLGYVNSAVNPIIYTTFNIEFRKAFLKILHC [DRD2] | 1950 ± 620 | 
MDPTISTLDTELTPINGTEETLCYKQTLSLTVLTCIVSLVGLTGNAVVLWLLGCRMRRNAFSIYILNLAAADFLFLSGRLIYSLLSFISIPHTISKILYPVMMFSYFAGLSFLSAVSTERCLSVLWPIWYRCHRPTHLSAVVCVLLWALSLLRSILEWMLCGFLFSGADSAWCQTSDFITVAWLIFLCVVLCGSSLVLLIRILCGSRKIPLTRLYVTILLTVLVFLLCGLPFGIQFFLFLWIHVDREVLFCHVHLVSIFLSALNSSANPIIYFFVGSFRQRQNRQNLKLVLQRALQDASEVDEGGGQLPEEILELSGSRLEQ [MRGPRX1] | 6278 ± 45 | 
MDPTTPAWGTESTTVNGNDQALLLLCGKETLIPVFLILFIALVGLVGNGFVLWLLGFRMRRNAFSVYVLSLAGADFLFLCFQIINCLVYLSNFFCSISINFPSFFTTVMTCAYLAGLSMLSTVSTERCLSVLWPIWYRCRRPRHLSAVVCVLLWALSLLLSILEGKFCGFLFSDGDSGWCQTFDFITAAWLIFLFMVLCGSSLALLVRILCGSRGLPLTRLYLTILLTVLVFLLCGLPFGIQWFLILWIWKDSDVLFCHIHPVSVVLSSLNSSANPIIYFFVGSFRKQWRLQQPILKLALQRALQDIAEVDHSEGCFRQGTPEMSRSSLV [MRGPRX2] | 359 ± 8.2 | 
